This note sets out measurements from patent US20180171001A1.

What all share (test): cell-based or functional assay
Experiment [1] has as its target Env of HIV-1 strain ZM53M.PB12 (HIV-1).
Experiment [2] deals with Env of HIV-1 strain 3365.v2.c20 (HIV-1).
Experiment [3] concerns the target Env of HIV-1 strain YU2.DG (HIV-1).
For experiment [4], the target named is Env of HIV-1 strain REJO4541.67 (HIV-1).
Experiment [5] has as its target Env of HIV-1 strain 251-18 (HIV-1).
The target of experiment [6] is Tier 2 15 virus panel.
Experiment [7] has as its target Env of HIV-1 strain 3016.v5.c45 (HIV-1).
Experiment [8] deals with Env of HIV-1 strain PVO.4 (HIV-1).
Experiment [9] concerns the target Env of HIV-1 strain H086.8 (HIV-1).
Experiment [10] deals with Env of HIV-1 strain 250-4 (HIV-1).
The target of experiment [11] is Env of HIV-1 strain 3415.v1.c1 (HIV-1).
Experiment [12] has as its target Env of HIV-1 strain ZM109F.PB4 (HIV-1).
The target in experiment [13] is Env of HIV-1 strain R1166.c1 (HIV-1).
The target of experiment [14] is Env of HIV-1 strain 231965.c1 (HIV-1).
Experiment [15] has as its target Env of HIV-1 strain X1254_c3 (HIV-1).
Experiment [16] concerns the target Env of HIV-1 strain Du172.17 (HIV-1).
The target in experiment [17] is Env of MuLV.

Where only a bound is given, the exact number is not on record here.

B1: γ52κ5 (antibody, V domains shown)
VH: QIHLVQSGTEVKKPGSSVTVSCKAYGVNTFGLYAVNWVRQAPGQSLEYIGQIWRWKSSASHHFRGRVLISAVDLTGSSPPISSLEIKNLTSDDTAVYFCTTTSTYDRWSGLHHDGVMAFSSWGQGTLISVSA
VL: DIQMTQSPSTLSASTGDTVRISCRASQSITGNWVAWYQQRPGKAPRLLIYRGAALLGGVPSRFRGSAAGTDFTLTIGNLQAEDFGTFYCQQYDTYPGTFGQGTKVEVKR
In the case of B1, the neutralization IC50 in experiment [1] was 3.13 µg/mL; in [2], over 15 µg/mL; in experiment [3], 0.065 µg/mL; in experiment [4], 0.035 µg/mL; in [5] it was 0.048 µg/mL; in experiment [7], 0.017 µg/mL. Further, the neutralization IC50 in experiment [8] was 0.019 µg/mL; in experiment [9], 0.175 µg/mL; in experiment [10], over 15 µg/mL; in experiment [11] it was 0.12 µg/mL; in experiment [12], over 15 µg/mL; in [13], 0.319 µg/mL. Also, the neutralization IC50 in [14] is 0.094 µg/mL; in experiment [15], 0.504 µg/mL. Besides, the mean neutralization IC50 in experiment [6] was 0.45 µg/mL. The same molecule gave a potency against 8ANC195 in [6] of 5 fold.

B2: γ59κ61 (antibody, V domains shown)
VH: QIHLVQSGTEVKKPGSSVTVSCKAYGVNTFGLYAVNWVRQAPGQGLEYIGQIWRWKSSASHHFRGRVLISAVDLTGSSPPISSLEIKNVTSDDTAVYFCTTTSTYDEWSDLHHDGVMAFSSWGQGTLISVSA
VL: DIQMTQSPSTLSASIGDTVRISCRASQSITGNWVAWYHQRPGKAPRLLIYRGAALLGGVPSRFSGSAAGTDFTLTIGNLQAEDFGTFYCQQYDTYPGTFGQGTKVEVKR
For B2, the neutralization IC50 in experiment [1] was 13.3 µg/mL; in [2] it was over 15 µg/mL; in [3] it was 4.33 µg/mL; in experiment [16] it was over 15 µg/mL; in experiment [4], 1.33 µg/mL; in experiment [5], 1.4 µg/mL. The neutralization IC50 in experiment [7], in experiment [8], in [9], in [10], in [11] and in [17] was over 15 µg/mL throughout. The neutralization IC50 in experiment [12] was over 15 µg/mL; in experiment [13] it was 7.46 µg/mL; in experiment [14], over 15 µg/mL; in [15], 4.01 µg/mL.

B3: γ46κ61 (antibody, V domains shown)
VH: QIHLVQSGTEVKKPGSSVTVSCKAYGVNTFGLYAVNWVRQAPGQGLEYIGQIWRWKSSASHHFRGRVLISAVDLTGSSPPISSLEIKNVTSDDTAVYFCTTTSTYDKWSGLHHDGVVAFSSWGQGTLISVSA
VL: DIQMTQSPSTLSASIGDTVRISCRASQSITGNWVAWYHQRPGKAPRLLIYRGAALLGGVPSRFSGSAAGTDFTLTIGNLQAEDFGTFYCQQYDTYPGTFGQGTKVEVKR
For B3, the neutralization IC50 is 27.5 µg/mL in experiment [1]; over 15 µg/mL in experiment [2]; 0.918 µg/mL in [3]; 26.1 µg/mL in experiment [16]; 0.378 µg/mL in experiment [4]; 1.84 µg/mL in experiment [5]. The neutralization IC50 in [7] was 0.383 µg/mL; in experiment [8] it was 0.244 µg/mL; in experiment [9], 0.584 µg/mL; in experiment [10], over 15 µg/mL; in experiment [11] it was over 15 µg/mL; in experiment [17] it was over 15 µg/mL. Besides, the neutralization IC50 is over 15 µg/mL in [12], 2.58 µg/mL in experiment [13], 1.58 µg/mL in experiment [14] and 4.46 µg/mL in experiment [15].

B4: 8ANC195 IgG (antibody, V domains shown)
VH: QIHLVQSGTEVKKPGSSVTVSCKAYGVNTFGLYAVNWVRQAPGQSLEYIGQIWRWKSSASHHFRGRVLISAVDLTGSSPPISSLEIKNLTSDDTAVYFCTTTSTYDKWSGLHHDGVMAFSSWGQGTLISVSA
VL: DIQMTQSPSTLSASIGDTVRISCRASQSITGNWVAWYQQRPGKAPRLLIYRGAALLGGVPSRFSGSAAGTDFTLTIGNLQAEDFGTFYCQQYDTYPGTFGQGTKVEV
As for B4, the neutralization IC50 in experiment [1] was 9.63 µg/mL; in [2] it was over 30 µg/mL; in experiment [3] it was 0.79 µg/mL; in [16], 10.8 µg/mL; in experiment [4] it was 0.08 µg/mL; in experiment [5], 0.284 µg/mL. In addition, the neutralization IC50 in experiment [7] is 0.195 µg/mL; in experiment [8], 0.52 µg/mL; in experiment [9], 0.095 µg/mL; in experiment [10], over 50 µg/mL; in [11] it was 2.4 µg/mL; in experiment [17] it was over 23 µg/mL. The neutralization IC50 in [12] was over 30 µg/mL; in experiment [13], 0.986 µg/mL; in experiment [14], 0.514 µg/mL; in [15] it was 1.52 µg/mL. This molecule also yielded a mean neutralization IC50 in [6] of 2.3 µg/mL.

B5: γ52κ61 (antibody, V domains shown)
VH: QIHLVQSGTEVKKPGSSVTVSCKAYGVNTFGLYAVNWVRQAPGQSLEYIGQIWRWKSSASHHFRGRVLISAVDLTGSSPPISSLEIKNLTSDDTAVYFCTTTSTYDRWSGLHHDGVMAFSSWGQGTLISVSA
VL: DIQMTQSPSTLSASIGDTVRISCRASQSITGNWVAWYHQRPGKAPRLLIYRGAALLGGVPSRFSGSAAGTDFTLTIGNLQAEDFGTFYCQQYDTYPGTFGQGTKVEVKR
Consider B5, for which the neutralization IC50 in experiment [1] was 8.44 µg/mL; in [2], over 15 µg/mL; in experiment [3], 0.408 µg/mL; in experiment [16], 7.28 µg/mL; in [4] it was 0.115 µg/mL; in [5], 0.273 µg/mL. Moreover, the neutralization IC50 in [7] is 0.182 µg/mL; in experiment [8], 0.078 µg/mL; in [9] it was 0.242 µg/mL; in experiment [10], over 15 µg/mL; in [11], 0.681 µg/mL; in [17] it was over 15 µg/mL. Further, the neutralization IC50 in experiment [12] was over 15 µg/mL; in [13], 1.64 µg/mL; in [14] it was 0.516 µg/mL; in experiment [15], 2.57 µg/mL.
